Experimental data reported in patent US20260116951A1 (DUCENTIS BIOTHERAPEUTICS, published 2026).

T1: muCD200R-Fc (Creative Biomart CD200R1-458M) (mouse, UniProt Q9ES57 26-238)
T1 construct: Captured on anti-human IgG Fc for the mouse CD200 measurements; also called Murine CD200R1; immobilized CD200R (muCD200); not shown: Fc of the bought fusion, not described (captured on anti-human IgG Fc)
T1 sequence (looked up): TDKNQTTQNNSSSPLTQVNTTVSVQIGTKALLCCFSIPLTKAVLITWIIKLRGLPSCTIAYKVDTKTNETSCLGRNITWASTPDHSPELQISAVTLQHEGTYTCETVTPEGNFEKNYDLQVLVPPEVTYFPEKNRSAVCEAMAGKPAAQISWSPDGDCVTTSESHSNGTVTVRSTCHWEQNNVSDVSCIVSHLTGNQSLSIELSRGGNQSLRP

B1: DS-192 (human CD200-Fc, K130Y, IgG4 Fc) (Fc fusion)
chain: QVQVVTQDEREQLYTPASLKCSLQNAQEALIVTWQKKKAVSPENMVTFSENHGVVIQPAYKDKINITQLGLQNSTITFWNITLEDEGCYMCLFNTFGFGYISGTACLTVYVQPIVSLHYKFSEDHLNITCSATARPAPMVFWKVPRSGIENSTVTLSHPNGTTSVTSILHIKDPKNQVGKEVICQVLHLGTVTDFKQTVNKGPPCPPCPAPEFLGGPSVFLFPPKPKDTLMISRTPEVTCVVVDVSQEDPEVQFNWYVDGVEVHNAKTKPREEQFNSTYRVVSVLTVLHQDWLNGKEYKCKVSNKGLPSSIEKTISKAKGQPREPQVYTLPPSQEEMTKNQVSLTCLVKGFYPSDIAVEWESNGQPENNYKTTPPVLDSDGSFFLYSRLTVDKSRWQEGNVFSCSVMHEALHNHYTQKSLSLSLGK
notes: also called 13 nM CD200-Fc; ha CD200-IgG4 Fc
B2: Human CD200R1L (receptor, UniProt Q6Q8B3 24-239, looked up)
chain: GKQMTQNYSTIFAEGNISQPVLMDINAVLCCPPIALRNLIIITWEIILRGQPSCTKAYKKETNETKETNCTVERITWVSRPDQNSDLQIRPVDTTHDGYYRGIVVTPDGNFHRGYHLQVLVTPEVNLFQSRNITAVCKAVTGKPAAQISWIPEGSILATKQEYWGNGTVTVKSTCPWEGHKSTVTCHVSHLTGNKSLSVKLNSGLRTSGSPALSLL
notes: nothing is said of the reagent
B3: Mouse CD200R protein (Creative Biomart CD200R1-3280M) (receptor, UniProt Q9ES57 26-238, looked up)
chain: TDKNQTTQNNSSSPLTQVNTTVSVQIGTKALLCCFSIPLTKAVLITWIIKLRGLPSCTIAYKVDTKTNETSCLGRNITWASTPDHSPELQISAVTLQHEGTYTCETVTPEGNFEKNYDLQVLVPPEVTYFPEKNRSAVCEAMAGKPAAQISWSPDGDCVTTSESHSNGTVTVRSTCHWEQNNVSDVSCIVSHLTGNQSLSIELSRGGNQSLRP
notes: also called Murine CD200R1; murine CD200R
B4: Recombinant Human CD200R, His-tagged (Creative Biomart CD200R1-320H) (receptor, UniProt Q8TD46 27-266, looked up)
chain: AAQPNNSLMLQTSKENHALASSSLCMDEKQITQNYSKVLAEVNTSWPVKMATNAVLCCPPIALRNLIIITWEIILRGQPSCTKAYKKETNETKETNCTDERITWVSRPDQNSDLQIRTVAITHDGYYRCIMVTPDGNFHRGYHLQVLVTPEVTLFQNRNRTAVCKAVAGKPAAHISWIPEGDCATKQEYWSNGTVTVKSTCHWEVHNVSTVTCHVSHLTGNKSLYIELLPVPGAKKSAKL
notes: Bought; also called human CD200 receptor; not shown: His tag
B5: Murine wild-type CD200 monomer, his-tag (DS-131), printed in Table 7 as DS-198 (ligand, mouse, UniProt O54901 31-232, looked up)
chain: QVEVVTQDERKALHTTASLRCSLKTSQEPLIVTWQKKKAVSPENMVTYSKTHGVVIQPAYKDRINVTELGLWNSSITFWNTTLEDEGCYMCLFNTFGSQKVSGTACLTLYVQPIVHLHYNYFEDHLNITCSATARPAPAISWKGTGTGIENSTESHFHSNGTTSVTSILRVKDPKTQVGKEVICQVLYLGNVIDYKQSLDKG
notes: extracellular domain; the match of DS-131 to DS-198 follows the order of the sentence; also called wild type muCD200-Fc (the corresponding IgG2a Fc fusion); not shown: his tag
B6: Murine CD200 H82Y, T125I monomer, his-tag (DS-169), printed in Table 7 as DS-227 (ligand, mouse, UniProt O54901 31-232, looked up)
chain: QVEVVTQDERKALHTTASLRCSLKTSQEPLIVTWQKKKAVSPENMVTYSKTYGVVIQPAYKDRINVTELGLWNSSITFWNTTLEDEGCYMCLFNIFGSQKVSGTACLTLYVQPIVHLHYNYFEDHLNITCSATARPAPAISWKGTGTGIENSTESHFHSNGTTSVTSILRVKDPKTQVGKEVICQVLYLGNVIDYKQSLDKG
notes: extracellular domain; See the note of m9; not shown: his tag

Tests used:
[1] = target: B4; test: SPR, CD200R flowed over immobilized CD200-Fc, 25 C, 1:1 fit
Method: (§1) For human CD200 constructs: anti-human Fc (GE Healthcare) was covalently immobilized on a BIAcore CM5 sensor chip (Cytiva, BR100530) by amine coupling using a Cytiva kit (BR100839) following the manufacturer's instructions, targeting immobilization of 8,000-11,000 RU. CD200-Fc proteins were diluted to 0.5 μg/mL to 4 μg/mL in running Buffer (1×HBS-EP+pH7.4 (Cytiva BR100669), HEPES Buffered Saline pH 7.4 containing 3 mM EDTA and 0.05% v/v Surfactant P20) and flowed for 25 to 100 seconds at 10 μL/min over the immobilized Anti-Human IgG Fc, with a stabilization time of 60 seconds. Between 35 and 250 RUs of CD200-Fc were captured, with higher RUs used for cynomolgus CD200R binding experiments. […] Analysis temperature was 25° C. This was followed by regeneration of the surface with 30-90 second pulse of 3M MgCl₂ flowed at […] flow rate followed by stabilization of the surface with 60 second flow of running buffer.
(§2) Curves obtained were fitted to 1:1 Langmuir binding model by setting Rmax and RI as local parameters. Rate equations using standard parameters (e.g. ligand concentration, time) were used for iterative curve fitting. […] Means of 2 experiments carried out on the same day are shown with standard deviation. Residue numbering for CD200 proteins refers to the pre-protein, containing a signal peptide which is cleaved during insertion into the endoplasmic reticulum.

[2] = target: T2, Recombinant Cyno CD200R, His-tagged (Creative Biomart CD200R1-3483C) (cynomolgus monkey); test: SPR, cyno CD200R1 flowed over immobilized CD200-Fc, 25 C, 1:1 fit
T2 construct: Bought; also called cynomolgus CD200R1; cynomolgus CD200R
Method: as §1, §2

[3] = target: T2, Recombinant Cyno CD200R, His-tagged …; test: SPR, cyno CD200R1 flowed over immobilized CD200-Fc, 25 C, 1:1 fit, mean of 2 experiments with standard deviation
Method: as §1, §2

[4] = target: B1; test: SPR (BIAcore)
[5] = target: B1; test: SPR, CD200R flowed over immobilized CD200-Fc, 25 C, 1:1 fit, mean of 2 experiments with standard deviation
Method: as §1, §2

[6] = target: T1, muCD200R-Fc (Creative Biomart …); test: SPR, his-tag mouse CD200 monomer flowed over muCD200R-Fc captured on anti-human Fc, 25 C, 1:1 fit
Method: (§3) For mouse CD200 constructs, muCD200R-Fc (Creative Biomart CD200R1-458M) diluted to 1 μg/mL in running buffer was flowed over the immobilized Anti-Human IgG Fc, with CD200 monomers serially diluted and flowed over captured CD200R. Other details were as above. Data analysis: experimental sensorgrams were analyzed in BIAevaluation software (GE Healthcare). The curves obtained were fitted to 1:1 Langmuir binding model by setting Rmax and RI as local parameters. Rate equations using standard parameters (e.g. ligand concentration, time) were used for iterative curve fitting. Closeness of fit was determined by algorithms provided by the manufacturer in the BIAevaluation software, and data accepted if the Chi² value was less than 10% of Rₘₐₓ, and the U value was less than or equal to 15.
as §2

[7] = target: T1, muCD200R-Fc (Creative Biomart …); test: SPR, his-tag mouse CD200 monomer flowed over muCD200R-Fc captured on anti-human Fc, 25 C, 1:1 fit, mean of 2 experiments with standard deviation
Method: as §3, §2

[8] = target: T1, muCD200R-Fc (Creative Biomart …); test: SPR, monomeric binding
Method: as §3, §2

| Binder | binding result [4] | T1/2 [6] | Kd [7] | also measured |
| --- | --- | --- | --- | --- |
| B1 | – | – | – | T1/2 [1]: 3.1 min; T1/2 [2]: 0.32 min; Kd [3]: 459 nM |
| B2 | no binding | – | – | – |
| B3 | no binding | – | – | – |
| B4 | – | – | – | Kd [5]: 12.5 nM |
| B5 | – | 0.288 min | 584 nM | – |
| B6 | – | 1.96 min | 43.3 nM | fold higher affinity than wild type [8]: ~14 fold |
